{
  "source": "paper PMC11939966",
  "origin": "cited, not measured here",
  "target": "Tristetraprolin (TTP) (Homo sapiens) (UniProt P26651)",
  "sequence (P26651 whole entry)": "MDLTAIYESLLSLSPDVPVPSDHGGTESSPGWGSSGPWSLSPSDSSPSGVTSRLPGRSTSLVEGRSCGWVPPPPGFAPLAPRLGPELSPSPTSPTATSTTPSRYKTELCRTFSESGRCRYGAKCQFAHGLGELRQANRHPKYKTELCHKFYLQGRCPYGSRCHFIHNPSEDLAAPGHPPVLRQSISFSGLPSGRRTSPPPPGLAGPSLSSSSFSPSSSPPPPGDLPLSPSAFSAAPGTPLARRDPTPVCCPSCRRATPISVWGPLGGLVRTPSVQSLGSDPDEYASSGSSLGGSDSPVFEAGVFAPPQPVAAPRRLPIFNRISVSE",
  "assay": "ITC",
  "data": [
    {"substance": "CNOT1 800-999 (from UniProt A5YKK6)", "values": [
      {"measurement": "Kd", "value": 2, "unit": "µM"}
    ]}
  ]
}
